# Measured values published in patent US20250281536A1 (published 2025).
# Target: T1, Human CD4-Fc (human, UniProt P01730 26-390)
# T1 construct: not shown: Fc
# Assay: BLI; human CD4-Fc captured; binder-mouse Fc homodimer at 125 nM
binder,measurement,value
"Binder 279 expressed as homodimer with mouse Fc (Fc fusion, not shown: mouse Fc) QVQLVQSGAEVKKPGASVKVSCKASGGTFSSYAISWVRQAPGQGLEWMGWINPNSGGTNYAQKFQGRVTMTRDTSTSTVYMELSSLRSEDTAVYYCARDGYSGSYSDWGQGTLVTVSSGGGGSGGGGSGGGGSDIVMTQSPDSLAVSLGERATINCKSSQSVLSSSYNKNYLAWYQQKPGQPPKLLIYWASTRESGVPDRFSGSGSGTDFTLTISSLQAEDVAVYYCQQYYSTPWTFGQGTKVEIK",Kd,5 nM
same,koff,0.00021 s⁻¹
same,kon,41700 M⁻¹ s⁻¹
